Experimental data taken from patent publication US20220098305A1 (Hoffmann-La Roche, published 2022).
Read-outs that look alike come from different tables or passages of the source.

T1: human ICOS (human, UniProt Q9Y6W8 21-199)
T1 construct: The cell that carries it is named under assay; also called huICOS; CD278
T1 sequence: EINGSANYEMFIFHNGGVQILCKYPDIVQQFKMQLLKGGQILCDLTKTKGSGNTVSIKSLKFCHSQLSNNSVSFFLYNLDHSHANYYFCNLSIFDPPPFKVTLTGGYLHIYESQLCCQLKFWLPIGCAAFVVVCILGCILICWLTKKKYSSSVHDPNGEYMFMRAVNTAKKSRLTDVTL

T2: cynomolgus ICOS (cynomolgus, UniProt Q9Y6W8 21-195 (human entry))
T2 chain: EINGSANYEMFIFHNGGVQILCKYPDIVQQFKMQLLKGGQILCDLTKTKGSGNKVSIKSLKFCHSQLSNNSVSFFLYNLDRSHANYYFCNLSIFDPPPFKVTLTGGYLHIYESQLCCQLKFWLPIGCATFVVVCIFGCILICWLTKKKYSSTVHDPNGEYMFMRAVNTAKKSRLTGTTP


Columns and labels:
human ICOS [1] = biological target: T1, human ICOS; assay: flow cytometry, SR cells
human FAP [2] = biological target: T3, human FAP (human, UniProt Q12884 1-760); assay: flow cytometry, NIH/3T3-huFAP clone 19 cells
T3 construct: also called hu FAP
Experimental: (§1) Briefly, suspension cells were harvested, counted, checked for viability and re-suspended at 1 million cells per ml in FACS buffer (PBS with 0.1% BSA). […] The staining was fixed for 20 min at 4° C. in the dark, using 75 μl of 1% PFA in FACS buffer per well.
(§2) Fluorescence was analyzed by FACS using a FACS Fortessa (Software FACS Diva). Binding curves and EC₅₀ values were obtained using GraphPadPrism 7.

human FAP [3] = biological target: T3, human FAP; assay: flow cytometry, NIH/3T3-huFAP clone 19 cells; remark: listed apart in the source
human ICOS [4] = biological target: T1, human ICOS; assay: flow cytometry, CHO cells expressing human ICOS
Experimental: as §1, §2

cynomolgus ICOS [5] = biological target: T2, cynomolgus ICOS; assay: flow cytometry, activated cynomolgus PBMCs, CD4+ subset
Experimental: as §1
(§3) Briefly, cynomolgus PBMCs were activated for 48 hours using Dynabeads™ Human T-Activator CD3/CD28 (Thermo Fischer #11131D) according to manufacturer instruction and stored in RPMI1640 medium containing 10% FCS and 1% Glutamax (Gibco 35050061) at 37° C., in a humidified incubator until subsequent binding experiment was performed, as described above.

cynomolgus ICOS [6] = biological target: T2, cynomolgus ICOS; assay: flow cytometry, activated cynomolgus PBMCs, CD8+ subset
Experimental: as §1, §3

human ICOS [7] = biological target: T1, human ICOS; assay: flow cytometry on SR cells expressing human ICOS, geometric MFI
human ICOS [8] = biological target: T1, human ICOS; assay: cell-based or functional assay
human ICOS [9] = biological target: T1, human ICOS; assay: flow cytometry, CHO cells expressing human ICOS; remark: listed apart in the source
human ICOS [10] = biological target: T1, human ICOS; assay: flow cytometry on CHO cells expressing human ICOS, PE-labelled secondary antibody; y axis printed LOG10(MFI PE)
human ICOS [11] = biological target: T1, human ICOS; assay: as above; remark: listed apart in the source

| Binder | EC50 (human ICOS [1]) | EC50 (human FAP [2]) | EC50 (human FAP [3]) | EC50 (human ICOS [4]) | EC50 (cynomolgus ICOS [5]) | EC50 (cynomolgus ICOS [6]) | EC50 (read off the curve) (human ICOS [7]) | EC50 of activation of Jurkat-NFAT reporter cell line (human ICOS [8]) | Max (Counts/sec), Jurkat-NFAT reporter cell line (human ICOS [8]) | EC50 (human ICOS [9]) | Max (Log10(MFI)) (human ICOS [9]) | EC50 (read off the curve) (human ICOS [10]) | EC50 (read off the curve) (human ICOS [11]) |
| --- | --- | --- | --- | --- | --- | --- | --- | --- | --- | --- | --- | --- | --- |
| Molecule 22, bispecific 2+1 anti-ICOS (1143v2)/anti-FAP (4B9) huIgG1 P329GLALA kih (bispecific antibody) heavy 1: QSLEESGGDLVKPGASLTLTCKASGFDFSSAYDMSWVRQAPGKGLEWIGVIYYGDGITYYATSVKGRFTISKTSSTTVPLQMTSLTAADTATYFCARGAFLGSSYYLSLWGQGTLVTVSSASTKGPSVFPLAPSSKSTSGGTAALGCLVKDYFPEPVTVSWNSGALTSGVHTFPAVLQSSGLYSLSSVVTVPSSSLGTQTYICNVNHKPSNTKVDKKVEPKSCDKTHTCPPCPAPEAAGGPSVFLFPPKPKDTLMISRTPEVTCVVVDVSHEDPEVKFNWYVDGVEVHNAKTKPREEQYNSTYRVVSVLTVLHQDWLNGKEYKCKVSNKALGAPIEKTISKAKGQPREPQVCTLPPSRDELTKNQVSLSCAVKGFYPSDIAVEWESNGQPENNYKTTPPVLDSDGSFFLVSKLTVDKSRWQQGNVFSCSVMHEALHNHYTQKSLSLSPGGGGGSGGGGSGGGGSGGGGSEIVLTQSPGTLSLSPGERATLSCRASQSVTSSYLAWYQQKPGQAPRLLINVGSRRATGIPDRFSGSGSGTDFTLTISRLEPEDFAVYYCQQGIMLPPTFGQGTKVEIK heavy 2: not shown light: AIDMTQTPASVEAAVGGTVTINCQASENIYNWLAWYQQKPGQPPKLLIYDASKLASGVPSRFSASGSGTQFTLTISAVESADAATYYCQQAYTYGNIDNAFGGGTEVVVSRTVAAPSVFIFPPSDEQLKSGTASVVCLLNNFYPREAKVQWKVDNALQSGNSQESVTEQDSKDSTYSLSSTLTLSKADYEKHKVYACEVTHQGLSSPVTKSFNRGEC | 0.00117 nM | 4.68 nM | 0.00324 nM | 2.19 nM | 6.53 nM | 8.34 nM | ~1 nM |  |  |  |  |  |  |
| Molecule 19, bispecific 2+1 anti-ICOS (1138)/anti-FAP (4B9) huIgG1 P329GLALA kih (bispecific antibody) heavy 1: QSLEESGGDLVKPGASLTLTCTASGFDLSSYYYMSWVRQAPGKGLEWIASIYADIYGGTTHYASWAKGRFTISKTSSTTVTLQMTSLTAADTATYFCAREDGSRYGGSGYYNLWGPGTLVTVSSASTKGPSVFPLAPSSKSTSGGTAALGCLVKDYFPEPVTVSWNSGALTSGVHTFPAVLQSSGLYSLSSVVTVPSSSLGTQTYICNVNHKPSNTKVDKKVEPKSCDKTHTCPPCPAPEAAGGPSVFLFPPKPKDTLMISRTPEVTCVVVDVSHEDPEVKFNWYVDGVEVHNAKTKPREEQYNSTYRVVSVLTVLHQDWLNGKEYKCKVSNKALGAPIEKTISKAKGQPREPQVCTLPPSRDELTKNQVSLSCAVKGFYPSDIAVEWESNGQPENNYKTTPPVLDSDGSFFLVSKLTVDKSRWQQGNVFSCSVMHEALHNHYTQKSLSLSPGGGGGSGGGGSGGGGSGGGGSEIVLTQSPGTLSLSPGERATLSCRASQSVTSSYLAWYQQKPGQAPRLLINVGSRRATGIPDRFSGSGSGTDFTLTISRLEPEDFAVYYCQQGIMLPPTFGQGTKVEIK heavy 2: not shown light: ALVMTQTPSSVSAAVGGTVTINCQASQNIYSNLAWYQQKPGQPPKLLIYAASYLTSGVSSRFKGSGAGTQFTLTISGVESADAATYYCQQGHTTDNIDNAFGGGTEVVVKRTVAAPSVFIFPPSDEQLKSGTASVVCLLNNFYPREAKVQWKVDNALQSGNSQESVTEQDSKDSTYSLSSTLTLSKADYEKHKVYACEVTHQGLSSPVTKSFNRGEC |  | 6.16 nM |  | 5.44 nM | 13.5 nM | 14 nM |  |  |  |  |  |  |  |
| Molecule 33 (ICOS H1138_1) (antibody, human IgG1, kappa, L234A L235A, V domains shown, Human IgG format) VH: EVQLLESGGGLVQPGGSLRLSCAASGFDLSSYYYMSWVRQAPGKGLEWVSSIYADIYGGTTHYASWAKGRFTISKTSSKTTLYLQMNSLRAEDTAVYFCAREDGSRYGGSGYYNLWGQGTLVTVSS VL: DIQMTQSPSSLSASVGDRVTITCRASQNIYSNLAWYQQKPGQPPKLLIYAASYLTSGVPSRFSGSGSGTDFTLTISSLQPEDFATYYCQQGHTTDNIDNAFGGGTKVEIKR |  |  |  |  |  |  |  | 41.4 nM | 41400 Counts/sec | 7.58 nM | 3.89 Log10(MFI) | ~8 nM |  |
| Molecule 34 (ICOS H1138_2) (antibody, human IgG1, kappa, L234A L235A, V domains shown, Human IgG format) VH: EVQLLESGGGLVQPGGSLRLSCAASGFDLSSYYYMSWVRQAPGKGLEWVSSIYADIYGGTTHYASWAKGRFTISRDNSKNTLYLQMNSLRAEDTAVYFCAREDGSRYGGSGYYNLWGQGTLVTVSS VL: AIQMTQSPSSLSASVGDRVTITCRASQNIYSNLAWYQQKPGKPPKLLIYAASYLTSGVSSRFSGSGSGTDFTLTISSLQPEDFATYYCQQGHTTDNIDNAFGGGTKVEIKR |  |  |  |  |  |  |  | 34 nM | 38400 Counts/sec | 10.2 nM | 1.91 Log10(MFI) | ~10 nM |  |

More lines, now with the values ahead:

| EC50 (human ICOS [1]) | EC50 (human FAP [2]) | EC50 (human FAP [3]) | EC50 (human ICOS [4]) | EC50 (cynomolgus ICOS [5]) | EC50 (cynomolgus ICOS [6]) | EC50 (read off the curve) (human ICOS [7]) | EC50 of activation of Jurkat-NFAT reporter cell line (human ICOS [8]) | Max (Counts/sec), Jurkat-NFAT reporter cell line (human ICOS [8]) | EC50 (human ICOS [9]) | Max (Log10(MFI)) (human ICOS [9]) | EC50 (read off the curve) (human ICOS [10]) | EC50 (read off the curve) (human ICOS [11]) | Binder |
| --- | --- | --- | --- | --- | --- | --- | --- | --- | --- | --- | --- | --- | --- |
|  |  |  |  |  |  |  | 99.4 nM | 59500 Counts/sec | 2.72 nM | 4.55 Log10(MFI) | ~3 nM |  | Molecule 35 (ICOS H1138_3) (antibody, human IgG1, kappa, L234A L235A, V domains shown, Human IgG format) VH: EVQLLESGGGLVQPGGSLRLSCAASGFDLSSYYYMSWVRQAPGKGLEWVSSIYADIYGGTTHYASWAKGRFTISKTSSTTLYLQMNSLRAEDTAVYFCAREDGSRYGGSGYYNLWGQGTLVTVSS VL: AIQMTQSPSSLSASVGDRVTITCRASQNIYSNLAWYQQKPGKPPKLLIYAASYLTSGVSSRFSGSGSGTDFTLTISSLQPEDFATYYCQQGHTTDNIDNAFGGGTKVEIKR |
|  |  |  |  |  |  |  | 38.7 nM | 28500 Counts/sec | 2.12 nM | 4.3 Log10(MFI) | ~2 nM |  | Molecule 32 (ICOS 1138) (antibody, human IgG1, kappa, L234A L235A, V domains shown, Human IgG format; also called parental antibody of Molecules 33-35) VH: QSLEESGGDLVKPGASLTLTCTASGFDLSSYYYMSWVRQAPGKGLEWIASIYADIYGGTTHYASWAKGRFTISKTSSTTVTLQMTSLTAADTATYFCAREDGSRYGGSGYYNLWGPGTLVTVSS VL: ALVMTQTPSSVSAAVGGTVTINCQASQNIYSNLAWYQQKPGQPPKLLIYAASYLTSGVSSRFKGSGAGTQFTLTISGVESADAATYYCQQGHTTDNIDNAFGGGTEVVVKR |
|  |  |  |  |  |  |  | 23.2 nM | 52000 Counts/sec | 1.75 nM | 4.44 Log10(MFI) |  | ~2 nM | Molecule 31 (ICOS H1143v2_3) (antibody, human IgG1, kappa, L234A L235A, V domains shown, Human IgG format) VH: EVQLLESGGGLVQPGGSLRLSCAASGFDFSSAYDMSWVRQAPGKGLEWIGVIYYGDGITYYADSVKGRFTISRDNSNTLYLQMNSLRAEDTAVYFCARGAFLGSSYYLSLWGQGTLVTVSS VL: DIQMTQSPSSLSASVGDRVTITCRASENIYNWLAWYQQKPGKAPKLLIYDASKLASGVPSRFSGSGSGTDFTLTISSLQPEDFATYYCQQAYTYGNIDNAFGGGTKVEIKR |
